Experimental findings from article PMC7337043 are described below.

The experiment addresses mature Zika virus (ZIKV) virion, icosahedral shell of 180 copies each of the E protein and M protein (Zika virus). Nature of the experiment: cryo-EM structure; purified ZIKV virions (10 mM Tris-HCl pH 8.0, 120 mM NaCl, 1 mM EDTA) mixed with purified Fab (15 mM Tris-HCl pH 8, 150 mM NaCl) at E protein:Fab molar ratio 1:2; single particle analysis with icosahedral symmetry, 4.1 Å.

B1: Fab of monoclonal antibody ZAb_FLEP (Fab, V domains shown)
VH: EVQLLESGGGLVQPGGSLRLSCAASGFSFSTYSMHWVRQAPGKGLEWVSAISGEGDSAYYADSVKGRFTISRDNSKNTLYLQMNKVRAEDTAVYYCVGGYSNFYYYYTMDAWGQGTMVTVSS
VL: DIVMTQSPASLSLSPGERATLSCRATQSISTFLAWYQQKPGQAPRLLIYDASTRASGIPARFSGSRSGTDFTLTITRLEPEDFAVYYCQQRYNWPPYSFGQGTKLEIK
As to B1, the stoichiometry N (Fab molecules per virion) is 120.
